Results taken from publication PMC6990647.

Target: hUNG2 N-terminal domain (NTD) (Homo sapiens, UniProt P13051 1-92)
Assay: fluorescence anisotropy

hUNG2 N-terminal domain (NTD), sequence (P13051 1-92): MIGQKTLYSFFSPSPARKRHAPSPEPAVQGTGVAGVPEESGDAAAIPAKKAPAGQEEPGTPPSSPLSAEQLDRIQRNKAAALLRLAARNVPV

B1: NS19FAM duplex (dsDNA)
DNA 1: GCTCTGTACATGAGCAGTG
DNA 2: CACTGCTCATGTACAGAGC
**Q.** B1 was tested. Which Kd did it give?
**A.** The Kd was 10 µM.

**Q.** For GCTCTGTACATGAGCAGTG (ssDNA) [NS19FAM ssDNA], which Kd is on record?
**A.** The Kd was 23 µM.
